One block for each compound: values may come before it.
Key:
GPCR135 [1] = molecular target: T1, GPCR135 (Homo sapiens, UniProt Q9NSD7); assay: Intracellular cAMP accumulation assay in CHO-K1 cells; format: cell-based; parameters: primers complementary to the putative translation start and stop sites of the GPCR135 open reading frame; expressed in transfected cells; host or cells: CHO-K1 (transient, pCIneo vector); isolated cell membranes
T1 sequence (Q9NSD7 1-469): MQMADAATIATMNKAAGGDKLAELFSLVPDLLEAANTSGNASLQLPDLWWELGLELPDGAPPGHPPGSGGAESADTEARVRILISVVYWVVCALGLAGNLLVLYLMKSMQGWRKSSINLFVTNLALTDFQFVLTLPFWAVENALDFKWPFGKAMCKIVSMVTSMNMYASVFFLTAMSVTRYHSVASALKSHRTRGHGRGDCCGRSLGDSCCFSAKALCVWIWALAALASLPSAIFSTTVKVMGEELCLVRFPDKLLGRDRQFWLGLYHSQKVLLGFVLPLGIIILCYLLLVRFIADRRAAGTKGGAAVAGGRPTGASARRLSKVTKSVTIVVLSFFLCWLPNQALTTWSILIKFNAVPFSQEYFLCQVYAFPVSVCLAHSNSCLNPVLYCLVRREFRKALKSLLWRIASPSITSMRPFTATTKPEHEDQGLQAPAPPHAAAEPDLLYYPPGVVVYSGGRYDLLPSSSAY
Description: CHO-K1 cells stably expressing human GPCR135 (GPCR135) and un-transfected CHO-K1 cells (Control) were used for cAMP accumulation assays. Cells were treated with different stimulants as indicated. cAMP accumulated in the cells was extracted by HCl and the concentration of cAMP was measured by a ELISA kit (NEN) using ^125I-labeled cAMP and Flash plates.
CHO-K1 cells stably expressing human GPCR135 were established by transfection of GPCR135 expressing plasmid into CHO-K1 (ATCC# CCL-61) cells and culturing the transfected cells under selection of G418 (400 mg/L). The receptor expressing cells were seeded in 96-well plates at a cell density of 30,000 cells/well. Twenty-four hours later, cell culture medium was replaced with DMEM-F12 plus 2 mM IBMX (sigma). A different test compound for cAMP stimulation was added to each well. The reactions were incubated at room temperature for 20 min. Twenty micro-liters of 0.5 N HCl was added to each well to stop the reaction and extract the accumulated cAMP. The cAMP concentration was measured using a cAMP ELISA kit (NEN).

rat GPCR135 = assay: Radioligand binding assay in transfected COS-7 cells; settings: COS-7 cells transfected with rat GPCR135 (long and short form); competitor 1 μM unlabeled relaxin3
rat GPCR135, sequence (as listed by the source): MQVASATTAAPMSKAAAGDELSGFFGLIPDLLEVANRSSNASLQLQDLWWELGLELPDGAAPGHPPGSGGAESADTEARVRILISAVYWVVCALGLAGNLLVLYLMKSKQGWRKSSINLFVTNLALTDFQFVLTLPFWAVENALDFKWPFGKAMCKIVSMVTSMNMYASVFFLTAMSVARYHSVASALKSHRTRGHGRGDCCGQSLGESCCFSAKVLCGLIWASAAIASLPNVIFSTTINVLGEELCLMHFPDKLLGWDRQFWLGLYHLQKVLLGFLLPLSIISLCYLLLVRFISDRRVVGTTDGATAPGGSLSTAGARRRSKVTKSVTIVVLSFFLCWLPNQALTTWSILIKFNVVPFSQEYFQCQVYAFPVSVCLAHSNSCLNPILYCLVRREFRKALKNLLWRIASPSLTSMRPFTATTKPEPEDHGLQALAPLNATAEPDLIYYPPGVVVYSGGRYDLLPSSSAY
Description: (§1) COS7 cells, either untransfected (NC) or transfected with pcDNA3.1 (the vector control), human GPCR135 (hGPCR135), mouse GPCR135 (mGPCR135), rat GPCR135 long form (rGPCR135L), and rat GPCR135 short form (rGPCR135s) respectively, were used for binding assays using ^125I-labeled human relaxin3 either in the present (“Competition”) or absence (“Total Binding”) of 1 µM of unlabeled human relaxin3 as the competitor.
(§2) COS-7 cells in 6-well tissue culture plates were transfected by GPCR135 expressing plasmid using LipofectAmine. Two days after transfection, cells were washed with binding buffer: DMEM plus 50 mM Hepes, pH 7.2 and 1% BSA. ^125I-label human relaxin3 was added to each well in 1 ml of binding buffer at presence or absence 1 μM of unlabeled relaxin as competitor. The binding assays were carried out at room temperature for one hour and the unbound ligand was washed away by ice-cold PBS. The bound ^125I-relaxin3 was counted in a gamma counter.

GPCR135 [2] = molecular target: T1, GPCR135; assay: as above; settings: COS-7 cells transfected with human GPCR135; competitor 1 μM unlabeled relaxin3
Description: as §1, §2

mouse GPCR135 = molecular target: T2, mouse GPCR135 (Mus musculus, UniProt Q8BGE9); assay: as above; settings: COS-7 cells transfected with mouse GPCR135; competitor 1 μM unlabeled relaxin3
T2 construct: Mouse GPCR135 coding region was PCR amplified from mouse genomic DNA; expressed in transfected cells; host or cells: COS-7 (ATCC CRL-1651), transient
T2 sequence (Q8BGE9 1-472): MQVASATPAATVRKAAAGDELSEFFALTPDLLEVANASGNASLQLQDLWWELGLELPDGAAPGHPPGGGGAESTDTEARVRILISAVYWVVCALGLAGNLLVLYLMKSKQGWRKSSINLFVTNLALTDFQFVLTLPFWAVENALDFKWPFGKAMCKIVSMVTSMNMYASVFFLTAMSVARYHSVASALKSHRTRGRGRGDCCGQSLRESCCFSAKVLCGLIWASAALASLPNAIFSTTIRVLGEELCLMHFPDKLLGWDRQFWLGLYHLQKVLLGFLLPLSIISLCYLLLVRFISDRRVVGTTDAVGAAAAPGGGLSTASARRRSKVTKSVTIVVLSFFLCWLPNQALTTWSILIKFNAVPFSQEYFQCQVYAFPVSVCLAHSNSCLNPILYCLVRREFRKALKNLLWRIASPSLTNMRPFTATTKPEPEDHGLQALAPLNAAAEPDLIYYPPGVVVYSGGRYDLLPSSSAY
Description: as §1, §2

GPCR135 [3] = molecular target: T1, GPCR135; settings: transient expression in Cos-1 cells; cited from earlier work
GPCR135 [4] = molecular target: T1, GPCR135; assay: GTPγS binding assay with GPCR135 expressing cell membranes; format: biochemical; parameters: primers complementary to the putative translation start and stop sites of the GPCR135 open reading frame; expressed in transfected cells; host or cells: CHO-K1 (transient, pCIneo vector); isolated cell membranes; settings: GPCR135 expressing cell membrane
Description: Frozen rat brains (5 g) were homogenized at −30° C. in 40 ml ethanol/HCl (ethanol to 0.8M HCl ratio at 3:1). The homogenate was extracted at 4° C. for 2 hr and then centrifuged at 4° C. at 20,000 g for 30 min. The supernatant was loaded onto a 2 ml SP-Sephadex C-25 column (Amersham), washed with 1 M acetic acid and eluted with 2 M pyridine and 1 M acetic acid. The eluted fraction was loaded onto a 6 ml C-18 BondElut column, washed with 0.1% TFA and eluted with 60% acetonitrile and 0.1% TFA. The eluted peptides were lyophilized, reconstituted in water, and tested for GPCR135 ligand activity using GTPγS binding assay as described in Example 5.
The expression vector was transfected into COS-7 cells using LipofectAmine (Invitrogen). Three days after the transfection, the supernatants of the transfected cells were collected, the pH was adjusted to 3.0 and loaded onto a Sephadex C-25 cation exchange column. The column was washed with 1 M acetic acid and eluted with 2 M pyridine and 1 M acetic acid. The eluted proteins were loaded on a C-18 BondElut column, washed with 0.1% TFA, and eluted with 60% acetonitrile and 0.1% TFA. […]
GPCR135 expression vector was transfected into CHO-K1 cells using Lipofectamine (Invitrogen). […] Microscint-40 (Packard) was added to each well and the plate was counted on a top counter (TopCount NTX, Packard).

LGR7 = molecular target: T3, LGR7 (Homo sapiens, UniProt Q9HBX9); settings: cited from earlier work
T3 sequence (Q9HBX9 1-757): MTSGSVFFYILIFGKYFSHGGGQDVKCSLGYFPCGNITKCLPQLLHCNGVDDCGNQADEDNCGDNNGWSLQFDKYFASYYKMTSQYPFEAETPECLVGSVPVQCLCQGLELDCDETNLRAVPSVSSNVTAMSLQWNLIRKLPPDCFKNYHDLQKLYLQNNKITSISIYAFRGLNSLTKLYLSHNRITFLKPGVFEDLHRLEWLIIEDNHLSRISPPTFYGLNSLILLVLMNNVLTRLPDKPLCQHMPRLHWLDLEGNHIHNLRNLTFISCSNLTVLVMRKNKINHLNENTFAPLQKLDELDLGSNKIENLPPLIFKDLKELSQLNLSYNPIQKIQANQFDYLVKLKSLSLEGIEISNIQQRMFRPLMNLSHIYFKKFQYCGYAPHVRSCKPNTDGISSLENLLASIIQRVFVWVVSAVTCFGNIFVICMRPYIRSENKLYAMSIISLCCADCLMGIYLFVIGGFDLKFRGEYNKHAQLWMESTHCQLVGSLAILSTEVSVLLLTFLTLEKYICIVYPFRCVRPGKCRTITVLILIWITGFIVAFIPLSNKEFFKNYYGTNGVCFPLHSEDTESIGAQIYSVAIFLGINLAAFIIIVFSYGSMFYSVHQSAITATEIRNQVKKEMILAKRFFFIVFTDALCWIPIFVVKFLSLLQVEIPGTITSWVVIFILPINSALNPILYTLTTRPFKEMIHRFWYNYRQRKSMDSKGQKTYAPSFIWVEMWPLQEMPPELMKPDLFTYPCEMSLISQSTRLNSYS

GPCR135 [5] = molecular target: T1, GPCR135; assay: Ca2+ mobilization assay (FLIPR) in HEK293 cells co-expressing GPCR135 and Gqi5; format: cell-based; parameters: primers complementary to the putative translation start and stop sites of the GPCR135 open reading frame; expressed in transfected cells; host or cells: HEK293 (ATCC CRL-1573), transient co-transfection with Gqi5
Description: Using LipofectAmine, human embryonic kidney (HEK) 293 cells were co-transfected with a plasmid expressing GPCR135 receptor and a plasmid expressing Gqi5, a mutant G-protein that translates the activation of GPCR135 into an increased intracellular Ca^2+, or increased Ca^2+ mobilization (Conklin et al., 1993, Nature 363: 274-276). Two days after transfection, cells were detached with PBS plus 10 mM EDTA, pH 8.0. The detached cells were washed with DMEM-F12 medium (without phenol red, Invitrogen) and seeded in black poly-D lysine coated 96-well plates at a cell density of 50,000 cell/well. Calcium dye, Fluo-3 (AM) (TEFLABS, Austin, Tex.) was loaded into the cells and ligand stimulated calcium mobilization was monitored using FLIPR (Molecular Device).
HEK293 cells, untransfected (293 Control) or transfected by Gqi5 (293/Gqi5) alone or human GPCR135 (GPCR135) alone, or co-transfected by human GPCR135 and Gqi5 (GPCR135/Gqi5), were used for Ca^2+ mobilization assays under stimulation of relaxin3 as the ligand. Ligand-stimulated intracellular mobilization was monitored using FLIPR.

intracellular concentration of cAMP (GPCR135 [1]; in the absence of GPCR135): increases
intracellular concentration of cAMP (GPCR135 [1]; in the presence of GPCR135): increases
Compound: C=C[C@@]1(C)CC(=O)[C@]2(O)[C@@]3(C)[C@@H](O)CCC(C)(C)[C@@H]3[C@H](O)[C@H](OC(C)=O)[C@@]2(C)O1 [forskalin, reference compound]

Compound: ^125I-relaxin3: human relaxin3 labeled with iodine-125, used as radioligand
specific binding to GPCR135 (rat GPCR135): specifically binds
specific binding to GPCR135 (GPCR135 [2]): specifically binds
specific binding to GPCR135 (mouse GPCR135): specifically binds

Compound: angiotensin II (DRVYIHPF; Angiotensin-2; UniProt P01019 25-32, looked up)
binding sites on GPCR135 (GPCR135 [3]): did not produce any binding sites

Compound: relaxin3: secreted protein consisting of relaxin3 polypeptide chains A and B linked by disulfide bridges; recombinant human, natural ligand of GPCR135
stimulation of GTPγS binding (GPCR135 [4]): potently stimulated
forskalin-stimulated cAMP accumulation (GPCR135 [1]; cells expressing GPCR135): inhibits
intracellular concentration of cAMP (GPCR135 [1]; in the presence of GPCR135): decreases
activation of LGR7 (LGR7): activates
Ca2+ mobilization (GPCR135 [5]): stimulates

Source: patent US20060188956A1, “Relaxin3-gpcr135 complexes and their production and use” (priority 2003, published 2006)
